Laboratory results reported in patent US20260125649A1, “MEDIUM COMPOSITION AND METHOD FOR CULTURING MESENCHYMAL STEM CELLS” (ACADEMIA SINICA, priority 2018, published 2026).

System: MSCs
Experiment: Osteogenesis of MSCs by Alizarin Red S staining
Type: cell-based, human
Description: Calcium precipitation was measured by Alizarin Red S (ARS) staining to probe the efficiency of osteogenesis. […] Quantification of osteogenesis, as measured by ARS staining, is shown for each group. MSCs were induced by osteogenetic medium and treated with EpEX at indicated doses. The gene expression of RUNX2 was examined by qPCR. […] ARS staining was performed to check the efficiency of osteogenesis. MSCs were pretreated with let-7 inhibitor and then treated with EpEX for 14 days during osteo-induction. ARS staining was performed to check the efficiency of osteogenesis. […] RUNX2 gene expression was measured by qPCR. MSCs were pretreated with let-7 inhibitor and induced by EpEX. RUNX2 gene expression was examined by qPCR. […] Upon EpEX stimulation, phosphorylation of EGFR-STAT3 signaling is induced and subsequently upregulates the level of Lin28 which inhibits let-7. When let-7 is inhibited, the transcription factor, HMGA2, is increased and binds to the promoters of Oct4 and Sox2. The EpEX-mediated increases of Oct4 and Sox2 can promote osteogenesis of MSCs during osteo-induction. […]
After 14 days of osteogenic differentiation, cells were fixed with ice-cold 70% ethanol at −20° C. for 1 h and then washed with PBS. […] For quantification, the cells were incubated with 1 mL of […] buffer for 1 h to extract ARS, and the O.D. at 550 nm was recorded.

B1: EpEX: extracellular domain of human EpCAM, 265 amino acids in length (SEQ ID NO: 2) (protein, listed as Homo sapiens)
chain: MAPPQVLAFGLLLAAATATFAAAQEECVCENYKLAVNCFVNNNRQCQCTSVGAQNTVICSKLAAKCLVMKAEMNGSKLGRRAKPEGALQNNDGLYDPDCDESGLFKAKQCNGTSMCWCVNTAGVRRTDKDTEITCSERVRTYWIIIELKHKAREKPYDSKSLRTALQKEITTRYQLDPKFITSILYENNVITIDLVQNSSQKTQNDVDIADVAYYFEKDVKGESLFHSKKMDLTVNGEQLDLDPGQTLIYYVDEKAPEFSMQGLK
EpEX treatment during osteo-induction, 14 days, ARS staining
  osteogenesis compared to controls: 4 fold
EpEX, Day 14, vs non-treated controls
  calcium precipitation (ARS staining): higher
